# Source: patent US20220389097A1 (Genentech, published 2022)
# Where no end group is shown, it is not given here.
# T1: hTREM2 stalk antigen (human, UniProt Q9NZC2 129-174)
# T1 construct: also called human TREM2 stalk
# T1 chain: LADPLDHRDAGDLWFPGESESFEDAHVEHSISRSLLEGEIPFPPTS
# T2: cynomolgus TREM2 stalk antigen (cynomolgus monkey, UniProt A0A2K5UY34 159-204, not fully specified)
# T2 construct: domain: stalk
# T2 chain: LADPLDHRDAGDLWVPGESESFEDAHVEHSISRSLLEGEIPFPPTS
# T3: soluble human TREM2 (sTREM2) (human, UniProt Q9NZC2 19-157)
# T3 construct: also called soluble TREM2; TREM2 ectodomain
# T3 sequence: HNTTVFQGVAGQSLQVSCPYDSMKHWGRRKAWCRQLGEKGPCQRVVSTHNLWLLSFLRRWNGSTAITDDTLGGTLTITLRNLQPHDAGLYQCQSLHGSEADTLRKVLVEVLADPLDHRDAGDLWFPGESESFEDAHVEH
# T4: human TREM2 on cells (human, UniProt Q9NZC2 19-230)
# T4 sequence: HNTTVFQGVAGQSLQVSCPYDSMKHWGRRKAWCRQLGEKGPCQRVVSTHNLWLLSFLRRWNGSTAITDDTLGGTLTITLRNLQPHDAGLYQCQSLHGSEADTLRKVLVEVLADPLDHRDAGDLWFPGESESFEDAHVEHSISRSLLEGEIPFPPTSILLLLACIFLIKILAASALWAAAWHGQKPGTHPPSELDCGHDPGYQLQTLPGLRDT
# T5: 159-175 (also: biotinylated (site not given here))
# T5 construct: member of the group m13
# T5 peptide: ISRSLLEGEIPFPPTSI
# T6: soluble monomeric human TREM2 (human, UniProt Q9NZC2 19-174, limits assumed)
# T6 construct: Not the same as shed sTREM2; also called soluble monomeric TREM2
# T6 sequence: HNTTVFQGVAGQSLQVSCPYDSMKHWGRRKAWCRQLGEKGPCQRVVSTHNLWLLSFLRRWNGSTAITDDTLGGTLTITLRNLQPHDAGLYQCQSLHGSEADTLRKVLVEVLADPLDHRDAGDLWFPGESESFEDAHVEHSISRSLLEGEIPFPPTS
# Key:
# hTREM2 stalk antigen = molecular target: T1, hTREM2 stalk antigen; test: SPR (Biacore T200), 37 C; TREM2 stalk antigen on anti-human IgG1 Fc chip, antibody in solution
# Description: (§1) Forty-six rat anti-human antibodies were tested for binding affinity to the hTREM2 and cynomolgus TREM2 stalk. Antibody binding affinities for hTREM2 stalk and cynomolgus TREM2 stalk were measured by surface plasmon resonance (SPR) using a Biacore™ T200 apparatus. TREM2 stalk antigens (human or cynomolgus) were immobilized on anti-human IgG1 Fc Biacore™ chips and anti-TREM2 antibody clones were bound to immobilized TREM2 at 37° C. Binding affinities, KD (nM) were measured and recorded.
# (§2) Several antibodies were selected for binding measurements against cynomolgus TREM2 stalk. […] These four antibodies are referred to collectively below as the “3.10C2 group” of antibodies.
# [1] = molecular target: T2, cynomolgus TREM2 stalk antigen; test: as above
# Description: as §1, §2
# [2] = molecular target: T3, soluble human TREM2 (sTREM2); test: sandwich ELISA: test antibody coated as capture, sTREM2 from BMDM culture supernatant, biotinylated 3.17A9 as detection; normalised to 1.16B8
# From the text: For example, as shown in an Example 11 herein, the human TREM2 ELISA assay measured binding of antibodies to sTREM2 by coating onto plate wells the antibody to be tested as capture reagents and with biotinylated IgV-reactive monoclonal antibody 3.17A9 used as the detection reagent. Control antibody 1.16B8 was used as a positive control antibody to establish the standard for sTREM2 binding.
# A human TREM2 ELISA assay was used to measure binding of more than forty antibodies to soluble TREM2 (sTREM2) as follows: test anti-hTREM2 antibodies were coated onto plate wells as capture reagents and a biotinylated IgV-reactive monoclonal antibody, 3.17A9, was used as the detection reagent. Antibody 1.16B8 was used as a control antibody to establish the standard for sTREM2 binding. Plates coated with test or control antibody were incubated with diluted culture supernatant from bone marrow-derived macrophage (BMDM) cultures from transgenic mice expressing hTREM2. sTREM2 is constitutively produced by the BMDM cultures expressing hTREM2 and shed into the culture supernatant. Measurements were recorded at 450 nm for detection and 570 nm for background. The 3.17A9/1.16B8 antibody pair was selected over reagents provided in the R&D Systems kit as the commercial reagents were not compatible with sTREM2 detection of some of the antibodies tested. Control antibody 1.16B8 light chain sequence is shown in SEQ ID NO: 170, and its heavy chain sequence is shown in SEQ ID NO: 171.
# human TREM2 on cells = molecular target: T4, human TREM2 on cells; test: cell-based or functional assay
# 159-175 = molecular target: T5, 159-175; test: peptide ELISA with IgG, grey-scale heat map of OD650nm
# [3] = molecular target: T6, soluble monomeric human TREM2; test: SPR (Biacore T200), 37 C; IgG on anti-CH1 chip, soluble monomeric TREM2
Binder,binding result [2],binding result (159-175),also measured
"3.27H7 (rat anti-human TREM2 antibody) (antibody, V domains shown, Whole IgG) VH: EVQLVETGGSLVQPGGSLKLTCATSGFPFSNVWLHWIRRSPEKQLEWVAQIKARSDNYATYYAESVKGRFIVSRDDSKTTIYLQMNNLKEEDTAIYYCTGLDYWGQGVMVTVSS VL: DVVLTQAPLSVSVTPGESASISCRSSRSLLTSKGITSLYWYLQKPGMSPHLLIYRMSNLASGIPDRFSGSGSETDFTLKISEVEPEDVGVYYCAQFLVYPYTFGAGTKLELK",,,Kd (hTREM2 stalk antigen): 0.22 nM; Kd [1]: 0.26 nM
"rat 3.27H7 mIgG2a LALAPG (antibody, V domains shown, Mouse IgG2a LALAPG constant region) VH: EVQLVETGGSLVQPGGSLKLTCATSGFPFSNVWLHWIRRSPEKQLEWVAQIKARSDNYATYYAESVKGRFIVSRDDSKTTIYLQMNNLKEEDTAIYYCTGLDYWGQGVMVTVSS VL: DVVLTQAPLSVSVTPGESASISCRSSRSLLTSKGITSLYWYLQKPGMSPHLLIYRMSNLASGIPDRFSGSGSETDFTLKISEVEPEDVGVYYCAQFLVYPYTFGAGTKLELK",no binding,,
"rat 3.18E5 mIgG2a LALAPG (antibody, V domains shown, Mouse IgG2a LALAPG constant region) VH: EVQLVETGGSLVQPGKSLKLTCATSGFPFSNVWMHWVRQSPEKQLEWIAHIKAKSDNYATYYAESVKGRFTISRDDSKTTIYLQMNSLKEADTAIYYCTGLDYWGQGVMVTVSS VL: DTVLTQAPLSVSVTPGESASISCRSNKSLLGIRDITSLYWYLQKPGKSPQLLIYRMSNLASGVPDRFSGSGSETDFTLKISEVETEDVGVYYCAQFLRYPYTFGPGTKLELK",no binding,,
"rat 3.50G1 mIgG2a LALAPG (antibody, V domains shown, Mouse IgG2a LALAPG constant region) VH: EVQLVETGGSLVQPGKSLKLTCATSGFPFSNVWMHWVRQSPEKQLEWIAHIKAKSDNYATYYAESVKGRFTISRDDSKTSIYLQMNSLKDDDTAIYYCTGLDYWGQGVMVTVSS VL: DTVLTQAPLSVSVTPGESASISCRSNKSLLGIRDITSLYWFLQKPGKSPQLLIYRMSNLASGVPDRFSGSGSETDFTLKISEVETEDVGVYYCAQFLRYPYTFGPGTKLELQ",no binding,,
"Para.09 IgG with the 3.18E5 light chain (antibody, V domains shown) VH: EVQLVETGGSLVQPGKSLRLTCATSGFPFSNVWLHWVRQSPEKHPEWVAHIKAKSDNYATYYAESVKGRFTISRDDSKSSVFLQMNSLKEEDTAIYYCTDILEYWGQGTLVTVSS VL: DTVLTQAPLSVSVTPGESASISCRSNKSLLGIRDITSLYWYLQKPGKSPQLLIYRMSNLASGVPDRFSGSGSETDFTLKISEVETEDVGVYYCAQFLRYPYTFGPGTKLELK",,no binding,

# Continued, in another order:
binding result [2],binding result (159-175),Binder,also measured
no binding,,"rat 3.10C2 mIgG2a LALAPG (antibody, V domains shown, also called Rat 3.10C2 mIgG1a LALAPG) VH: EVQLVETGGSLVQPGKSLKLTCATSGFPFSNVWMHWVRQSPEKQLEWIAHIKAKSDNYATYYAESVKGRFTISRDDSKTSIYLQMNSLKEDDTAIYYCTGLDYWGQGVMVTVSS VL: DTVLTQAPLSLSVTPGESASISCRSSKSLLGVRDITSLYWYLQKPGKSPQLLIYRMSNLASGVPDRFSGSGSETDFTLKISEVETEDVGVYYCAQFLRYPYTFGPGTKLELK","EC50, Jurkat NFAT luciferase reporter cells (human TREM2 on cells): 0.28 µg/mL"
no binding,,"rat Para.09- LC 3.27H7 mIgG2a LALAPG (antibody, V domains shown, Mouse IgG2a LALAPG constant region; also called Rat para.09 mIgG2a LALAPG; Para.09. mIgG2a LALAPG) VH: EVQLVETGGSLVQPGKSLRLTCATSGFPFSNVWLHWVRQSPEKHPEWVAHIKAKSDNYATYYAESVKGRFTISRDDSKSSVFLQMNSLKEEDTAIYYCTDILEYWGQGTLVTVSS VL: DVVLTQAPLSVSVTPGESASISCRSSRSLLTSKGITSLYWYLQKPGMSPHLLIYRMSNLASGIPDRFSGSGSETDFTLKISEVEPEDVGVYYCAQFLVYPYTFGAGTKLELKR","EC50, Jurkat NFAT luciferase reporter cells (human TREM2 on cells): 0.04 µg/mL"
,no binding,"Para.09 IgG with the 3.27H7 light chain (antibody, V domains shown, also called rat Para.09; Para.09-L27H7) VH: EVQLVETGGSLVQPGKSLRLTCATSGFPFSNVWLHWVRQSPEKHPEWVAHIKAKSDNYATYYAESVKGRFTISRDDSKSSVFLQMNSLKEEDTAIYYCTDILEYWGQGTLVTVSS VL: DVVLTQAPLSVSVTPGESASISCRSSRSLLTSKGITSLYWYLQKPGMSPHLLIYRMSNLASGIPDRFSGSGSETDFTLKISEVEPEDVGVYYCAQFLVYPYTFGAGTKLELK",Kd [3]: 0.011 nM; koff [3]: 2.1e-05 s⁻¹; kon [3]: 2e+06 M⁻¹ s⁻¹
,no binding,"Para.09 IgG with the 3.10C2 light chain (antibody, V domains shown) VH: EVQLVETGGSLVQPGKSLRLTCATSGFPFSNVWLHWVRQSPEKHPEWVAHIKAKSDNYATYYAESVKGRFTISRDDSKSSVFLQMNSLKEEDTAIYYCTDILEYWGQGTLVTVSS VL: DTVLTQAPLSLSVTPGESASISCRSSKSLLGVRDITSLYWYLQKPGKSPQLLIYRMSNLASGVPDRFSGSGSETDFTLKISEVETEDVGVYYCAQFLRYPYTFGPGTKLELK",
,no binding,"Para.09 IgG with the 3.50G1 light chain (antibody, V domains shown) VH: EVQLVETGGSLVQPGKSLRLTCATSGFPFSNVWLHWVRQSPEKHPEWVAHIKAKSDNYATYYAESVKGRFTISRDDSKSSVFLQMNSLKEEDTAIYYCTDILEYWGQGTLVTVSS VL: DTVLTQAPLSVSVTPGESASISCRSNKSLLGIRDITSLYWFLQKPGKSPQLLIYRMSNLASGVPDRFSGSGSETDFTLKISEVETEDVGVYYCAQFLRYPYTFGPGTKLELQ",
